In patent US20160130569, “A LAGLIDADG HOMING ENDONUCLEASE CLEAVING THE T CELL RECEPTOR ALPHA GENE AND USES THEREOF” (CELLECTIS, published 2016):

Assays:
[1] = target: T1, I-OnuI wild type (OnuWT) (Ophiostoma novo-ulmi); assay: flow; yeast surface display titration; settings: label: Alexa Fluor 647
T1 chain: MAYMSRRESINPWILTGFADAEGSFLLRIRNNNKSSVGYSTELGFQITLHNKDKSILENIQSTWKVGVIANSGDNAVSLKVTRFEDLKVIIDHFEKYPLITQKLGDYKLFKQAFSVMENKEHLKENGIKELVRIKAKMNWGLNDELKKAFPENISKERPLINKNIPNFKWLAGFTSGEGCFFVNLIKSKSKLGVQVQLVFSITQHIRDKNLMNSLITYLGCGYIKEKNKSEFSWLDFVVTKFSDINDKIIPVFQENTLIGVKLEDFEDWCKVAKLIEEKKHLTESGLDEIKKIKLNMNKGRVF
Procedure: (§1) Samples of yeast displaying each LHE variant were independently incubated with increasing concentrations of fluorescent dye-labeled synthetic DNA substrates (y-axis). An antibody to a C-terminal epitope was also included (x-axis) such that DNA binding activity could be normalized to the amount of LHE protein expressed on the yeast surface, creating the co-linear pattern, with higher signal in the y-axis per x-axis signal where affinity is greater.
(§2) The LHE containing the engineered DNA recognition interfaces for the TCRA_S02 (SEQ ID NO: 3) target was tested for affinity, specificity, and toxicity characteristics. Affinity was tested by independently incubating yeast displaying the TCRA_S02_2E5_RD1_08 variant, (SEQ ID NO: 7, encoding SEQ ID NO: 8) with DNA substrates containing its target sequences at various concentrations. See FIG. 6 showing the affinity properties of this variant relative to the wild-type I-Onul protein. […] Toxicity was analyzed by in vitro transcribing each LHE into mRNA and transfecting primary human T cells by electroporation, followed by flow cytometry analysis of the survival of the cells relative to transfection with a control mRNA encoding a blue fluorescent protein (BFP).

[2] = target: T2, TCRA_S02_2E5 (Ophiostoma novo-ulmi (engineered)); assay: flow; yeast surface display titration; Example 3 text names the variant as TCRA_S02_2E5_RD1_08; settings: label: fluorescent dye (Alexa Fluor 647) in yeast display assays
T2 chain: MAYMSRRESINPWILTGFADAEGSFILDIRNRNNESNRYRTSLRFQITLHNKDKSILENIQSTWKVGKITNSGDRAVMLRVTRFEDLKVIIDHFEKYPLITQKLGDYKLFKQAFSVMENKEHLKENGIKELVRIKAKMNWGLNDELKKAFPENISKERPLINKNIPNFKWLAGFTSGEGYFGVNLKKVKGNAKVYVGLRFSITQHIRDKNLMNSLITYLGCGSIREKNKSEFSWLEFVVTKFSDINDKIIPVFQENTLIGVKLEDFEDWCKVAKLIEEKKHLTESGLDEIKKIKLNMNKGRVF
Procedure: as §1
as §2, with “(BFP). […]” for “(BFP).”

B1: I-OnuI native target (dsDNA)
DNA 1: TTTCCACTTATTCAACCTTTTA
DNA 2: TAAAAGGTTGAATAAGTGGAAA
[1]
  Kd: ~0.08 nM

B2: TCRA_S02 (dsDNA)
DNA 1: TGTCTGCCTATTCACCGATTTT
DNA 2: AAAATCGGTGAATAGGCAGACA
[2]
  Kd: ~0.09 nM
